What was measured:
[1] = biological target: EcFkpA-TpN17-Bi(DDS) (Treponema pallidum (TpN17 part); E. coli (FkpA part)); experiment: DAGS ECL; detection EcSkp-TpN17-Ru; competitor EcSlyD-VcLp15 0.1 ug/ml in R1
[2] = biological target: EcSS-TpN17-Bi(DDS) (Treponema pallidum (TpN17 part); E. coli (SlyD part)); experiment: DAGS ECL; detection PmSS-TpN17-Ru; competitor EcSlyD-VcLp15 0.3 ug/ml in R1
[3] = biological target: EcFkpA-TpN17-Bi(DDS) (Treponema pallidum (TpN17 part); E. coli (FkpA part)); experiment: DAGS ECL; detection EcSkp-TpN17-Ru; competitor EcSlyD-VcLp15 0.2 ug/ml in R1
[4] = biological target: EcFkpA-TpN17-Bi(DDS) (Treponema pallidum (TpN17 part); E. coli (FkpA part)); experiment: DAGS ECL; detection EcSkp-TpN17-Ru; competitor EcSlyD-VcLp15 0.5 ug/ml in R1
[5] = biological target: EcFkpA-TpN17-Bi(DDS) (Treponema pallidum (TpN17 part); E. coli (FkpA part)); experiment: DAGS ECL; detection EcSkp-TpN17-Ru; competitor EcSlyD-VcLp15 1.0 ug/ml in R1
[6] = biological target: EcSS-TpN17-Bi(DDS) (Treponema pallidum (TpN17 part); E. coli (SlyD part)); experiment: DAGS ECL; detection PmSS-TpN17-Ru; competitor EcSlyD-VcLp15 1.0 ug/ml in R1
[7] = biological target: EcSS-TpN17-Bi(DDS) (Treponema pallidum (TpN17 part); E. coli (SlyD part)); experiment: DAGS ECL; detection PmSS-TpN17-Ru; EcSlyD-VcLp15 0 ug/ml in R1
[8] = biological target: EcSS-TpN17-Bi(DDS) (Treponema pallidum (TpN17 part); E. coli (SlyD part)); experiment: DAGS ECL; detection PmSS-TpN17-Ru; competitor EcSlyD-VcLp15 0.1 ug/ml in R1
[9] = biological target: EcFkpA-TpN17-Bi(DDS) (Treponema pallidum (TpN17 part); E. coli (FkpA part)); experiment: DAGS ECL; detection EcSkp-TpN17-Ru; EcSlyD-VcLp15 0 ug/ml in R1
[10] = biological target: EcFkpA-TpN17-Bi(DDS) (Treponema pallidum (TpN17 part); E. coli (FkpA part)); experiment: DAGS ECL; detection EcSkp-TpN17-Ru; competitor EcSlyD-VcLp15 0.3 ug/ml in R1
[11] = biological target: EcSS-TpN17-Bi(DDS) (Treponema pallidum (TpN17 part); E. coli (SlyD part)); experiment: DAGS ECL; detection PmSS-TpN17-Ru; competitor EcSlyD-VcLp15 0.5 ug/ml in R1
[12] = biological target: EcSS-TpN17-Bi(DDS) (Treponema pallidum (TpN17 part); E. coli (SlyD part)); experiment: DAGS ECL; detection PmSS-TpN17-Ru; competitor EcSlyD-VcLp15 0.2 ug/ml in R1
[13] = biological target: EcFkpA-TpN17-Bi(DDS) (Treponema pallidum (TpN17 part); E. coli (FkpA part)); experiment: DAGS ECL; detection EcSkp-TpN17-Ru; competitor EcSkp-VcLp15 1.0 ug/ml in R1
[14] = biological target: EcSS-TpN17-Bi(DDS) (Treponema pallidum (TpN17 part); E. coli (SlyD part)); experiment: DAGS ECL; detection PmSS-TpN17-Ru; EcSkp-VcLp15 0 ug/ml in R1
[15] = biological target: EcSS-TpN17-Bi(DDS) (Treponema pallidum (TpN17 part); E. coli (SlyD part)); experiment: DAGS ECL; detection PmSS-TpN17-Ru; competitor EcSkp-VcLp15 1.0 ug/ml in R1
[16] = biological target: EcFkpA-TpN17-Bi(DDS) (Treponema pallidum (TpN17 part); E. coli (FkpA part)); experiment: DAGS ECL; detection EcSkp-TpN17-Ru; competitor EcSkp-VcLp15 0.1 ug/ml in R1
[17] = biological target: EcSS-TpN17-Bi(DDS) (Treponema pallidum (TpN17 part); E. coli (SlyD part)); experiment: DAGS ECL; detection PmSS-TpN17-Ru; competitor EcSkp-VcLp15 0.1 ug/ml in R1
[18] = biological target: EcFkpA-TpN17-Bi(DDS) (Treponema pallidum (TpN17 part); E. coli (FkpA part)); experiment: DAGS ECL; detection EcSkp-TpN17-Ru; EcSkp-VcLp15 0 ug/ml in R1

Substance | counts [1] | counts [2] | counts [3] | counts [4] | counts [5] | counts [6] | counts [7] | counts [8] | counts [9] | counts [10] | counts [11] | counts [12] | counts [13] | counts [14] | counts [15] | counts [16] | counts [17] | counts [18]
Trina #0647 | 786 counts | 620 counts | 764 counts | 762 counts | 742 counts | 623 counts | 623 counts | 614 counts | 774 counts | 773 counts | 618 counts | 606 counts |  |  |  |  |  | 
Trina #0646 | 795 counts | 628 counts | 817 counts | 784 counts | 784 counts | 613 counts | 634 counts | 617 counts | 797 counts | 802 counts | 621 counts | 634 counts | 815 counts | 651 counts | 646 counts | 847 counts | 659 counts | 840 counts
Trina #0642 | 716 counts | 626 counts | 722 counts | 698 counts | 661 counts | 610 counts | 657 counts | 613 counts | 778 counts | 698 counts | 623 counts | 638 counts | 744 counts | 673 counts | 632 counts | 757 counts | 673 counts | 750 counts

From US20150132859A1
